Measurements: patent US20170088616A1 (Kyowa Kirin, published 2017)
Each block holds one binder with its values, some of them ahead of it.

Assays:
[1] = target: T1, Mucin chimeraTIM-3 (human TIM-3 with the mucin domain substituted for mouse TIM-3) (human/mouse chimera); assay: flow cytometry, transfected HEK293F cells
T1 construct: expressed on HEK293F cells

[2] = target: T2, human TIM-3 (human, UniProt Q8TDQ0 22-301); assay: flow cytometry, Alexa-647 labeled antibody on human TIM-3 EoL-1 cells pre-bound with 10 ug/ml unlabeled competitor: 644
T2 construct: endogenous on Daudi cells in the ADCC test; also called HAVCR2; hTIM-3

[3] = target: T2, human TIM-3; assay: flow cytometry, Alexa-647 labeled antibody on human TIM-3 EoL-1 cells pre-bound with 10 ug/ml unlabeled competitor: anti-DNP (negative control)

B1: antibody 512 (antibody, V domains shown)
VH: QVQLVESGGGVVQPGRSLRLSCAASGFTFNSYGMHWVRQAPGKGLEWVAVIWYDGSNKYYGDSVKGRFTISRDNSKNTLYLQMNSLRAEDTAVYYCAIWFGEMFSEYFQHWGQGTLVTVSS
VL: AIQLTQSPSSLSASVGDRVTITCRASQGISSALAWYQQKPGKAPKLLIYDASSLESGVPSRFSGSGSGTDFTLTISSLQPEDFATYYCQQFNSYPLTFGGGTKVEIKR
notes: Hybridoma isotype IgG1; recombinant form has human IgG1 constant region and kappa chain, made in FUT8-/- CHO cells (defucosylated)
binding result [1]: binds
binding result [2]: binds

B4: antibody 8213 (antibody, V domains shown)
VH: QVQLQQPGAELVKPGASVKLSCKASGYTFTSYWMHWVKQRPGQGLEWIGEINPSNGRTNYNEKFKTKATLTVDKSSSTAYMQLSSLTSEDSAVYYCAGGYYLYFDYWGQGTTLTVSS
VL: DILMTQSPSSMSVSLGDTVNITCHASQGIRINIGWLQQKPGKSFKGLIYHGTNLEDGVPSRFSGSGSGPDYSLTISSLESEDFADYYCVQYGQFPWTFGGGTKLEMK
notes: Hybridoma isotype mouse IgG2b; recombinant form has mouse IgG2a constant region and kappa chain, made in HEK293F cells
binding result [1]: binds
binding result [3]: binds

The remaining lines, values ahead:

binding result [1]: binds
binding result [3]: binds
B2: antibody 644 (antibody, V domains shown)
VH: QVQLVESGGGLVKPGGSLRLSCAASGFTFSDYYMSWIRQAPGKGLEWVSFISSSGSIIYYADSVKGRFTISRDNAKNSLYLQMNSLRAEDTAVYYCARDGYSSSWYYYGMDVWGQGTTVTVSS
VL: not shown
notes: Hybridoma isotype IgG4; recombinant form has human IgG1 constant region and kappa chain, made in FUT8-/- CHO cells (defucosylated)

binding result [1]: binds
binding result [3]: binds
B3: antibody 4545 (antibody, V domains shown)
VH: QVQLQESGPGLVKPSETLSLTCTVSGGSFSRGGYYWNWIRQPPGKGLEWIGYIYYSGSTNYNPSLKSRVTISLDTSKNQFSLKLSSVTAADTAVYYCARDHYSSSWTFDYWGQGTLVTVSS
VL: EIVLTQSPATLSLSPGERATLSCRASQSVSSYLAWYQQKPGQAPRLLIYDASNRATGIPARFSGSGSGTDFTLTISSLEPEDFAVYYCQQRSNWPPTFGQGTKLEIK
notes: Hybridoma isotype IgG2; recombinant form has human IgG1 constant region and kappa chain, made in FUT8-/- CHO cells (defucosylated)
